The values that follow come from publication doi:10.1101/2025.08.18.670856.

The target of assay [1] is FetA-HIS (wild type, from the plasmid AHSG-bio-His) (human) (UniProt P02765). The experiment in a line: SPR.
In assay [2] the target is HIF-1α wild type used in SPR: C-terminal domain (CTD) of hypoxia-stable HIF-1α (579-826 residues) (human) (UniProt Q16665). The experiment in a line: SPR.

Consider “HIF-1α 743D>L point mutant (from UniProt Q16665 1-826) (natural protein)”, for which, in assay [1], the Kd came to 90 nM.

B1: FetA-HIS (wild type, from the plasmid AHSG-bio-His) (natural protein)
chain: APHGPGLIYRQPNCDDPETEEAALVAIDYINQNLPWGYKHTLNQIDEVKVWPQQPSGELFEIEIDTLETTCHVLDPTPVARCSVRQLKEHAVEGDCDFQLLKLDGKFSVVYAKCDSSPDSAEDVRKVCQDCPLLAPLNDTRVVHAAKAALAAFNAQNNGSNFQLEEISRAQLVPLPPSTYVEFTVSGTDCVAKEATEAAKCNLLAEKQYGFCKATLSEKLGGAEVAVTCMVFQTQPVSSQPQPEGANEAVPTPVVDPDAPPSPPLGAPGLPPAGSPPDSHVLLAAPPGHQLHRAHYDLRHTFMGVVSLGSPSGEVSHPRKTRTVVQPSVGAAAGPVVPPCPGRIRHFKV
Take B1: in assay [2], the dissociation constant (Kd) worked out at 23.4 nM.
